In patent US20110201118:

Key:
[1] = system: TAL/GFP-L dTALEN (synthetic construct); experiment: cell_activity; details: paired with TAL/GFP-R; 5/10 clones at 0.5 ug/well in HEK293T; 0/4 without TALEN
[2] = system: TAL/GFP-R dTALEN (synthetic construct); experiment: cell_activity; details: paired with TAL/GFP-L; 5/10 clones at 0.5 ug/well in HEK293T; 0/4 without TALEN

Row | Substance | activity (% clones with deletions) [1] | activity (% clones with deletions) [2]
1 | eGFP target, TAL/GFP-L half-site | 50 | 
2 | eGFP target, TAL/GFP-R half-site |  | 50
